Source: the nanobody polyreactivity screen of Harvey et al. (2022)

Assay: yeast display, Sf9 membrane polyspecificity reagent, FACS + sequencing; frameworks hold sequencing errors
In short: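 Using colony PCR, genes from sorted yeast display clones were amplified, then sequenced on MiSeq at 2 × 250 and filtered by CDR length. The clones had been stained with 10% biotinylated, detergent-solubilized Sf9 membrane reagent for 1 hour at 4 °C and sorted by FACS into low and high (top ~1%) gates on anti-HA and streptavidin fluorescence. Polyreactivity labels come from the gate of origin.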

| Sequence | polyreactivity (PSR sort gate) |
| --- | --- |
| QVQLVESGGGLVQAGGSLRLSCAATGFTFRFYAIGWYRQAPGKERELVAAISSRGTTTYYADSVKGRFTISRDNAKNTVYLQMNSLKPEDTAVYYCNKEYTTYGYDLEYDYWGQGTQVTVSS | low polyreactivity |
| QVQLVESGGGLVQAGGSLRLSCAATGFTFYKNAMGWYRQAAGKDRELVAAITRGGTTNYADSVMGRFTISRDNAKNTVYLQMNSLKEEDTAVYYCAKQGRYLTRYGYWGQGTQVTVSS | high polyreactivity |
| QVQLVESGGGLVQAGGSLRLSCAATGFTFYVNAMGWYRQAPGKERELVAGITTSDGSTYYADSVKGRFTISRDNAKNTVYLQMNSLKPEDTAVYYCAAAITWYQLYQRSGGDYWGQGTQVTVSS | low polyreactivity |
| QVQLVESGGGLVQAGGSLRLSCAATGIIFHRYVMGWYRQAPGKERELVAVITQRGGSTYYADSVKGRFTISRDNAKNTVYLQMNSLKQEDTAVYYCAARSQYRDRTGQYGYWGQGSQVTVSS | high polyreactivity |
| QVQLVESGGGLVQAGGSLRLSCAATGIIFRDYGKGWYRHAPGKQREFVATITYSGGGTYYADSVKGRFTISRDNAKNTVYLQMNSLKPEDTAVYYCAAYPFYYDLAYDYWGQGTQVTVSS | low polyreactivity |
| QVQLVESGGGLVQAGGSLRLSCAATGIIIDSNAMGWYRQAPGKERELVAAITSGGSTKYADSVKGRFTISRDNAKNTVYLQMNSLKPEDTAVYYCAAGGSYYRDDYWGQGTQVTVSS | low polyreactivity |
| QVQLVESGGGLVQAGGSLRLSCAATGLIFAYNTMGWYRQAPGKERELVAGITSSGSTYYADSVKGRFTISRDNAKNTVYVQMNSLKPEDTAVYYCAAEWDDGRSWYWYYLVGFEYWGQGTQVTVSS | high polyreactivity |
| QVQLVESGGGLVQAGGSLRLSCAATGLTFKENVMGWYRQAPGKERELVAAISTGASTYYADSVNGRFTISRDNAKNTVYLQMNSLKPEDTAVYYCAKRVTPWYGYWGQGTQVTVSS | high polyreactivity |
| QVQLVESGGGLVQAGGSLRLSCAATGRIFPYYAMGWYRQAPGKERALVATISSGGRTNYADSVKGRFTISRDNAKNTVYLQMNSLNPEDTAVYYCAADYRKSRVFYGLYYWGQGTQVTVSS | high polyreactivity |
| QVQLVESGGGLVQAGGSLRLSCAATGRIFRTTAMGWYRQAPGTVRELVAAITFSGGGTYYADSVKGRFTISRDHAKNTGYLQMNSLKPEETAFYYCYADDSYDLSCFEDDYWGQGTQVTVSS | low polyreactivity |
| QVQLVESGGGLVQAGGSLRLSCAATGRIFSLYAMGWYRQAPGKERELVASITRSGVRTYYADSVKGRFTISRDNAKNTVYLQMNSLKPEDTAVYYCAAPYLYSQGTYYRSSGMDYWGQGTQVTVSS | low polyreactivity |
| QVQLVESGGGLVQAGGSLRLSCAATGRIFTINAMGWYRQAPGKERELVAGITKSGGITYYADSVKGRFTISRDNAKNTVYLQMNSLKPEDTAVYYCAAPFNRWRARTGFDYWGQGTQVTVSS | high polyreactivity |
| QVQLVESGGGLVQAGGSLRLSCAATGRIISFYVMGWYRQAPGKERELVAAISLSGGSTYYADSVKGRFTNSRDNAKNTVFLQMNCLKPEDTAVYYCYAVLYARQRERWARYDYWGQGTQVTVSS | high polyreactivity |
| QVQLVESGGGLVQAGGSLRLSCAATGRISFRILWDGIDRRLGKKGSWLPLLTNTGSTNYADSVKARFTISRDNAKNTVYLQMNSLKPEDTAVYYCNADPTGGSSYPAYFEYDYWGQGTQGTVSS | low polyreactivity |
| QVQLVESGGGLVQAGGSLRLSCAATGRTFPAYAMGWYRQAPGKERELVAAITINGGSTYYADSVKGRFTISRDNAKNSVYLQMNSLKPEDTAVYYCAAYYASPRHGFWGQGTQVTVSS | low polyreactivity |
| QVQLVESGGGLVQAGGSLRLSCAATGRTFSVYTMGWYRQAPGKERELVASISRSGGRTYYADSVKGRFTISRDNAKNTVYLQMNSLKPEDTAVYYCAARWYSASALKYYYWGQGTQVTVSS | high polyreactivity |
| QVQLVESGGGLVQAGGSLRLSCAATGRTFTGNVMGWYRQAPGKERELVAAISRSGTSTYYADSVKGRFTISRDNAKNTVYLQMNSLKPEDTAVYYCAARRTAGYRSGEYDYWGQGTQVTVSS | high polyreactivity |
| QVQLVESGGGLVQAGGSLRLSCAATGSIFKWYAMGWYRQEPGKERELVSAISKSGGSTYYADSVKGRFTISRDNAKNTVYLQINSLKPEDTAVYYCNAVYIGSRRRYEYDYWGEGTQVTVSS | high polyreactivity |
| QVQLVESGGGLVQAGGSLRLSCAATGSIFNKYAMGWYRQAPGTEREFVAAITQGGGRTYYADSVKGRFTISRDNAKNTVYLQMNSLKPEDTAVYYCAKPAYHSPDYDYWGQGTQVTVSS | high polyreactivity |
| QVQLVESGGGLVQAGGSLRLSCAATGSIFQGNVMGWYRPAPGKERELVAGISSSGGRTYYADSVKGRFTISRDNAKNTVYLQMNSLIPEDTAVYYCNAVPSNRQLDYDYWGQGTLVTVSS | high polyreactivity |
| QVQLVESGGGLVQAGGSLRLSCAATGSIFSLYAMGWYRQSPGKERELVADITYSGGNTYYADSVKGRFTISRDNAKNTVYLHMNSLKPEDTAVYYCNAYYFDYWYWYDYWGQGTQVTVSS | high polyreactivity |

| Sequence | polyreactivity (PSR sort gate) |
| --- | --- |
| QVQLVESGGGLVQAGGSLRLSCAATGSIFSRYAMGWYRQAPGKERELVAAISWRGGGTYYADSVKGRFTISRDNAKNTVYLQMNSLKPVDTAVYYCAADDTPDDSDYWGQGTQVTVSS | low polyreactivity |
| QVQLVESGGGLVQAGGSLRLSCAATGSIIPFYAMGWYRQATGKEREFVAAISRTGGNTYYADSVKGLLTISRDNAKNTVYLQMNSLKPEDTAVYFCATKRKWTYLSFDYWGQGTQVTVSS | low polyreactivity |
| QVQLVESGGGLVQAGGSLRLSCAATGSTFDNYAMGWYRQAHGKERELVADITWSGGSTYYADSVKGRFTISRDNAKNTVYLQMNSLKPEDTAVYYCNTAGYYTKYDYWGQGTQVTVSS | low polyreactivity |
| QVQLVESGGGLVQAGGSLRLSCAATGSTFDRNAMVWYRLAPGKERELVAAISWRGGRTYYADSVKGRFTISRDNAKNTVYLQMNSLKPEDTAVYYCSAKGPGIRSVEGYDYWGQGTQVTVSS | low polyreactivity |
| QVQLVESGGGLVQAGGSLRLSCAATGSTFGAYAMGWYRQAPGKERELVAAITRRSGSTYYADSVKGRFTISRDNAKNTVYLQMNSLKPEDTAVYYCAARASTIMGSWGQGTQVTVSS | high polyreactivity |
| QVQLVESGGGLVQAGGSLRLSCAATGSTFHWYAMGWYRQAPGKATELVATITWSGGSTYYADSVKGRFTISRDNAKNTVYLQMNSLKPEDTAVYYCAAETYILLEYDYWGQGTQVTVSS | high polyreactivity |
| QVQLVESGGGLVQAGGSLRLSCAATGSTFKWYAMGWYIQAPGKERELVDSISWTGASTYYADSVKGRFTISRDKAKNTVYLQMNSLKPEDTAVYYCAADRTYYALLWTGRSRYDYWGQGTQVTVSS | high polyreactivity |
| QVQLVESGGGLVQAGGSLRLSCAATGSTFLVNAMGWYRQAPGKERELVAAISRGGSTYADSVKGRFTISRDNAKNTVYLQMYSMNPEDTAVYYCNARRYQSYRYYYWGQGTQVTVSS | high polyreactivity |
| QVQLVESGGGLVQAGGSLRLSCAATGSTFRNNAMGWSRQAPGKERELVAAISRGGGSTYYADSVKGRFTISRDNAKNTVYLQMNSLKPEVTAVYYCARRPTGIYDYWGQGTQVTLSS | high polyreactivity |
| QVQLVESGGGLVQAGGSLRLSCAATGSTFRYYAMGWYRQAPGKERELVAAISASGSSTYYADSVKGRFTISRHNAKNTVFLQMYSLKPEDTAVYYCATRQFYVRLGYYSWGQGTQVTVSS | high polyreactivity |
| QVQLVESGGGLVQAGGSLRLSCAATGSTFTSYAMGWYRQAPGKERELVAVISFSGGSTYYADSVKGRFTISRDNAKNTVYLQMNSLKPEDTAVYYCAARIYKRYYWGQGTQVTVSS | high polyreactivity |
| QVQLVESGGGLVQAGGSLRLSCAATGYTLYYNAMGWYIQAPGKERELVAAITSGGSTSYADSVKGRFTISRDNAKNTVYLQMNRLIPEDTAVYYCAAVFYRRFDYWGQGTQVTVSS | low polyreactivity |
| QVQLVESGGGLVQAGGSLRLSCAATRSIFFGYAMGWYRQAPGKEREFVAAITASGVRTYYADSVKGRFTISLDNAKNTVYLQMNSLKPEDTAVYYCAARIGTGVLPGRGANSHMDYWGQGTQVTVSS | low polyreactivity |
| QVQLVESGGGLVQAGGSLRLSCAAYGFILDFYTMGWYRQAPGKERELVAAITNGGSTYYADSVKGRFTISRDNAKNTVYLQMNSLKPEDTAVYYCAAYYRSRHNGYDSWGQGTQVTVSS | low polyreactivity |
| QVQLVESGGGLVQAGGSLRLSCAAYGFTFASNVMGWYRQAPGKDRELVAAITSGASTNYADSVKGRFTISRDNAKNTVYLQMNSLKPVDTAVYYCAAGRQWYVFYEFDYWGQGTQVTVSS | high polyreactivity |
| QVQLVESGGGLVQAGGSLRLSCAAYGFTFYPYAMGWYRQAPGKEREVVAASNSGGSTYYADSVKGRFTISRDNAKNTVYLQMNSLKPEDTAVYYCSAYGKRGAVAFYYWGQGTQVTVSS | high polyreactivity |
| QVQLVESGGGLVQAGGSLRLSCAAYGGIFYSNGMGWYRQAPGKERELVAAITGGDITDYADSVKGRFTISRDNAKNTVYLQMNSLKPEDTAVYYCAVESYPPDYGPRFGSWGQGTQVTVSS | low polyreactivity |
| QVQLVESGGGLVQAGGSLRLSCAAYGIIFNSYFMGWYRPAPGKERELVAAITGSCGRTYYADSVKGRFTISRDNAKNTVYLQIISLKPEDTAVYYCSATNRGQVYGAWYNSWGQGTQVTVSS | high polyreactivity |
| QVQLVESGGGLVQAGGSLRLSCAAYGIIFSYNVMGWYRQAPGKEREYVAAITRSGGSTYYADSVKGRFTISRDNAKNTVYLQMNSLKPEDTAVYYCAATTWSGPSRYYDWGQGTQVTVSS | high polyreactivity |
| QVQLVESGGGLVQAGGSLRLSCAAYGIIIGNNAMGCYRQAPGKERELVAAISRRGGSTYYADSVKGRFTISRDNAKNTVYLQMNSLKPEDTAVYYCAADIYRYNSYDYWGQGTQVTVSS | low polyreactivity |
